Key:
[1] = molecular target: mouse IgG (mouse); experiment: sandwich immunoassay (SAM + primary Ab + mouse IgG + Ab-AP) on an Au-coated silicon wafer macrochip; CV of PAPR; antigen concentration not stated
[2] = molecular target: mouse IgG (mouse); experiment: sandwich immunoassay (SAM + primary Ab + mouse IgG + Ab-AP) on an Au-coated LTCC macrochip, not sonicated; CV of PAPR; antigen concentration not stated
[3] = molecular target: mouse IgG (mouse); experiment: sandwich immunoassay (SAM + primary Ab + mouse IgG + Ab-AP) on an Au-coated LTCC macrochip, sonicated for 2 min; CV of PAPR; antigen concentration not stated

signal [1]: 27.7 Acm^-2
signal [2]: 34.6 Acm^-2
signal [3]: 30 Acm^-2
Substance: secondary antibody (to mouse IgG) conjugated to alkaline phosphatase
